Results on 50 variants are retold here after the Human Domainome abundance scans (Beltran et al. 2025).

B1: Cyclin-F, residues 28 to 80; numbered along this chain, P41002 (parent)
chain: RNLTILSLPEDVLFHILKWLSVEDILAVRAVHSQLKDLVDNHASVWACASFQE

± gives the uncertainty stated by the source.

This data set covers variants of B1. The data set is described as follows: abundance fitness (aPCA) (normalised: wild type 0, dead -1); higher = more abundant; growth selection in yeast, the domain comes from the species named. As to conditions: Homo sapiens.
Consider RNLTILSLPEDVLFHILKWLSVEDILAVRACHSQLKDLVDNHASVWACASFQE [V31C], for which the abundance fitness was -0.056 ± 0.1.

Turning to RNLTILSLPEDVLFHILKWLSVEDILAVRAYHSQLKDLVDNHASVWACASFQE [V31Y], the abundance fitness is -0.964 ± 0.23.

In the case of RNLTILSLPEDVLFHILKWLSVEDILAVRAQHSQLKDLVDNHASVWACASFQE [V31Q], the abundance fitness was -0.532 ± 0.15.

For the variant RNLTILSLPEDVLFHILKWLSVEDILAVRAMHSQLKDLVDNHASVWACASFQE [V31M], the abundance fitness was -0.681 ± 0.16.

In the case of RNLTILSLPEDVLFHILKWLSVEDILAVRADHSQLKDLVDNHASVWACASFQE [V31D], the abundance fitness is -0.729 ± 0.2.

As to RNLTILSLPEDVLFHILKWLSVEDILAVRARHSQLKDLVDNHASVWACASFQE [V31R], the abundance fitness was -0.754 ± 0.14.

As for RNLTILSLPEDVLFHILKWLSVEDILAVRATHSQLKDLVDNHASVWACASFQE [V31T], the abundance fitness was determined as 0.124 ± 0.11.

In the case of RNLTILSLPEDVLFHILKWLSVEDILAVRAKHSQLKDLVDNHASVWACASFQE [V31K], the abundance fitness is -0.809 ± 0.24.

Regarding RNLTILSLPEDVLFHILKWLSVEDILYVRAVHSQLKDLVDNHASVWACASFQE [A27Y], the abundance fitness is -0.876 ± 0.25.

On to RNLTILSLPEDVLFHILKWLSVEDILWVRAVHSQLKDLVDNHASVWACASFQE [A27W], for which the abundance fitness was -0.622 ± 0.14.

In the case of RNLTILSLPEDVLFHILKWLSVEDILGVRAVHSQLKDLVDNHASVWACASFQE [A27G], the abundance fitness is -0.787 ± 0.098.

On to RNLTILSLPEDVLFHILKWLSVEDILIVRAVHSQLKDLVDNHASVWACASFQE [A27I], for which the abundance fitness is -0.285 ± 0.24.

Take RNLTILSLPEDVLFHILKWLSVEDILMVRAVHSQLKDLVDNHASVWACASFQE [A27M]: the abundance fitness was -0.273 ± 0.12.

As for RNLTILSLPEDVLFHILKWLSVEDILVVRAVHSQLKDLVDNHASVWACASFQE [A27V], the abundance fitness is -0.238 ± 0.084.

With RNLTILSLPEDVLFHILKWLSVEDILPVRAVHSQLKDLVDNHASVWACASFQE [A27P], the abundance fitness is -0.44 ± 0.17.

As to RNLTILSLPEDVLFHILKWLSVEDILKVRAVHSQLKDLVDNHASVWACASFQE [A27K], the abundance fitness is -0.175 ± 0.14.

With RNLTILSLPEDVLFHILKWLSVEDILQVRAVHSQLKDLVDNHASVWACASFQE [A27Q], the abundance fitness is -0.089 ± 0.18.

As to RNLTILSLPEDVLFHILKWLSVEDILHVRAVHSQLKDLVDNHASVWACASFQE [A27H], the abundance fitness was -0.259 ± 0.38.

In the case of RNLTILSLPEDVLFHILKWLSVEDILTVRAVHSQLKDLVDNHASVWACASFQE [A27T], the abundance fitness came to 0.087 ± 0.15.

Regarding RNLTILSLPEDVLFHILKWLSVEDILRVRAVHSQLKDLVDNHASVWACASFQE [A27R], the abundance fitness was -0.047 ± 0.085.

Take RNLTILSLPEDVLFHILKWLSVEDILAVRKVHSQLKDLVDNHASVWACASFQE [A30K]: the abundance fitness was -0.339 ± 0.14.

On to RNLTILSLPEDVLFHILKWLSVEDILAVRTVHSQLKDLVDNHASVWACASFQE [A30T], for which the abundance fitness was -0.04 ± 0.12.

As to RNLTILSLPEDVLFHILKWLSVEDILAVRCVHSQLKDLVDNHASVWACASFQE [A30C], the abundance fitness turned out to be 0.089 ± 0.13.

Consider RNLTILSLPEDVLFHILKWLSVEDILAVRLVHSQLKDLVDNHASVWACASFQE [A30L], for which the abundance fitness came to 0.377 ± 0.075.

As to RNLTILSLPEDVLFHILKWLSVEDILAVRMVHSQLKDLVDNHASVWACASFQE [A30M], the abundance fitness is 0.188 ± 0.11.

As to RNLTILSLPEDVLFHILKWLSVEDILAVRIVHSQLKDLVDNHASVWACASFQE [A30I], the abundance fitness was -0.264 ± 0.14.

For RNLTILSLPEDVLFHILKWLSVEDILAVRRVHSQLKDLVDNHASVWACASFQE [A30R], the abundance fitness was determined as 0.053 ± 0.074.

Take RNLTILSLPEDVLFHILKWLSVEDILAVRWVHSQLKDLVDNHASVWACASFQE [A30W]: the abundance fitness was -0.836 ± 0.12.

On to RNLTILSLPEDVLFHILKWLSVEDILAVRVVHSQLKDLVDNHASVWACASFQE [A30V], for which the abundance fitness is -0.125 ± 0.098.

Turning to RNLTILSLPEDVLFHILKWLSVEDILAVRPVHSQLKDLVDNHASVWACASFQE [A30P], the abundance fitness was -0.844 ± 0.14.

In the case of RNLTILSLPEDVLFHILKWLSVEDILAVRNVHSQLKDLVDNHASVWACASFQE [A30N], the abundance fitness is -0.356 ± 0.21.

Turning to RNLTILSLPEDVLFHILKWLSVEDILAVRSVHSQLKDLVDNHASVWACASFQE [A30S], the abundance fitness came out at 0.111 ± 0.081.

Turning to RNLTILSLPEDVLFHILKWLSVEDILAVRFVHSQLKDLVDNHASVWACASFQE [A30F], the abundance fitness is -0.62 ± 0.16.

For the variant RNLTILSLPEDVLFHILKWLSVEDILAVRQVHSQLKDLVDNHASVWACASFQE [A30Q], the abundance fitness is -0.031 ± 0.11.

For the variant RNLTILSLPEDVLFHILKWLSVEDILAVRAVCSQLKDLVDNHASVWACASFQE [H32C], the abundance fitness was 0.209 ± 0.13.

RNLTILSLPEDVLFHILKWLSVEDILAVRAVTSQLKDLVDNHASVWACASFQE [H32T]: the abundance fitness is -0.503 ± 0.14.

As for RNLTILSLPEDVLFHILKWLSVEDILAVRAVRSQLKDLVDNHASVWACASFQE [H32R], the abundance fitness was -0.787 ± 0.11.

For RNLTILSLPEDVLFHILKWLSVEDILAVRAVWSQLKDLVDNHASVWACASFQE [H32W], the abundance fitness is -0.937 ± 0.19.

RNLTILSLPEDVLFHILKWLSVEDILAVRAVPSQLKDLVDNHASVWACASFQE [H32P]: the abundance fitness is -0.737 ± 0.15.

As for RNLTILSLPEDVLFHILKWLSVEDILAVRAVNSQLKDLVDNHASVWACASFQE [H32N], the abundance fitness amounted to 0.262 ± 0.1.

For RNLTILSLPEDVLFHILKWLSVEDILAVRAVSSQLKDLVDNHASVWACASFQE [H32S], the abundance fitness stood at 0.096 ± 0.081.

RNLTILSLPEDVLFHILKWLSVEDILAVRAVASQLKDLVDNHASVWACASFQE [H32A]: the abundance fitness is -0.438 ± 0.1.

Consider RNLTILSLPEDVLFHILKWLSVEDILAVRAVISQLKDLVDNHASVWACASFQE [H32I], for which the abundance fitness is -0.825 ± 0.23.

RNLTILSLPEDVLFHILKWLSVEDILAVRAVYSQLKDLVDNHASVWACASFQE [H32Y]: the abundance fitness was -0.895 ± 0.13.

On to RNLTILSLPEDVLFHILKWLSVEDILAVRAVMSQLKDLVDNHASVWACASFQE [H32M], for which the abundance fitness is -1.09 ± 0.3.

Consider RNLTILSLPEDVLFHILKWLSVEDILAVRAVKSQLKDLVDNHASVWACASFQE [H32K], for which the abundance fitness is -0.912 ± 0.2.

Consider RNLTILSLPEDVLFHILKWLSVEDILAVRAVESQLKDLVDNHASVWACASFQE [H32E], for which the abundance fitness is -0.653 ± 0.14.

Regarding RNLTILSLPEDVLFHILKWLSVEDILAVRAVGSQLKDLVDNHASVWACASFQE [H32G], the abundance fitness is -0.591 ± 0.11.

Turning to RNLTILSLPEDVLFHILKWLSVEDILAVRAVVSQLKDLVDNHASVWACASFQE [H32V], the abundance fitness was -0.532 ± 0.1.

Turning to RNLTILSLPEDVLFHILKWLSVEDILAVRAVLSQLKDLVDNHASVWACASFQE [H32L], the abundance fitness was -0.757 ± 0.13.
